One block for each substance: values may come before it.
Assays:
Experiment in all cases: AUC
[1] = biological target: Gly189Ala NFU1 (human) (UniProt Q9UMS0)
[2] = biological target: Gly189Arg NFU1 (human) (UniProt Q9UMS0)
[3] = biological target: Gly189Lys NFU1 (human) (UniProt Q9UMS0)
[4] = biological target: native human NFU1 (human) (UniProt Q9UMS0)

percent dimer [1]: 3% | percent dimer with 1 mM TCEP [1]: 3% | percent monomer [1]: 95% | percent monomer with 1 mM TCEP [1]: 95% | stoichiometry N [1]: 2
Substance: Gly189Ala NFU1 (from UniProt Q9UMS0 10-254) (natural protein)

percent dimer [2]: 4% | percent dimer with 1 mM TCEP [2]: 4% | percent monomer [2]: 95% | percent monomer with 1 mM TCEP [2]: 94% | stoichiometry N [2]: 2
Substance: Gly189Arg NFU1 (from UniProt Q9UMS0 10-254) (natural protein)

percent dimer [3]: 5% | percent dimer with 1 mM TCEP [3]: 6% | percent monomer with 1 mM TCEP [3]: 89% | stoichiometry N [3]: 2
Substance: Gly189Lys NFU1 (from UniProt Q9UMS0 10-254) (natural protein)

percent dimer [4]: 52% | percent dimer with 1 mM TCEP [4]: 44% | percent monomer [4]: 45% | percent monomer with 1 mM TCEP [4]: 44%
Substance: native human NFU1 (from UniProt Q9UMS0 10-254) (natural protein)
